From patent publication US6846636B1, “Methods and compositions for HDL holoparticle uptake receptor” (American National Red Cross, priority 1998, dated 2005)

Legend:
[1] = test system: RA/Bt2cAMP-treated F9 cells; assay: [125I]-HDL internalization and degradation assay; assay type: cell-based, mouse; conditions: [125I]-HDL 2 μg/ml, 6.5 h at 37° C.; unlabeled HDL 80 μg/ml, RAP 1 μM, chloroquine 50 μM, anti-cubilin IgG 150 μg/ml
Experimental: HDL internalization and degradation assays were performed in a manner similar to LDL and apolipoprotein J internalization and degradation assays described previously (Stefansson et al., 1995; Kounnas et al., 1995). ApoE-free HDL (HDL3) was labeled with [^125I]-iodine using the iodine monochloride method (Goldstein et al., 1983). RA/Bt2cAMP-treated and -untreated F9 cells were seeded onto gelatin-coated 3.83 cm^2 wells (Corning, Corning, N.Y.) at 1.5-1.75×10^5 cells/well and allowed to grow for 18 h at 37° C., 5% CO2. Prior to the addition of [^125I]-HDL, the cells were washed with serum-free DMEM and incubated in the assay medium (DMEM, 20 mM HEPES, ITS, penicillin/streptomycin, and 1.5% BSA) containing unlabeled HDL3 (80 μg/ml), RAP (1 μM), chloroquine (50 μM) (Sigma) or BSA (10 μM) and incubated for 0.5 hours at 37° C., 5% CO2. The medium was then removed and [^125I]-HDL3 (2 μg/ml) in serum-free medium or in serum-free medium containing unlabeled HDL3 (80 μg/ml), RAP (1 μM), chloroquine (50 μM) or BSA (10 μM) was added and incubated with the cells for 6.5 h at 37° C., 5% CO2. The conditioned culture medium was treated with trichloroacetic acid (final concentration 10%) and centrifuged at 10,000×g for 10 min. The amount of radioactivity present in the supernatant was taken to represent the amount of degraded HDL (Goldstein and Brown, 1974). […] The released cells were pelleted by centrifugation at 1,000×g for 15 min and the amount of radioactivity in the cell pellet measured.
HDL internalization and degradation assays were performed as described previously for LDL and apolipoprotein J (Hammad et al., 1997; Kounnas et al., 1995; Stefansson et al., 1995a). […] The amount of radioactivity in the supernatant was taken to represent the amount of degraded HDL (Goldstein and Brown, 1974). […] The released cells were pelleted by centrifugation at 1,000×g for 15 min and the amount of radioactivity in the cell pellet was measured and taken to represent the amount of internalized HDL.

[2] = test system: RA/Bt2cAMP-treated F9 cells; assay: DiI-HDL uptake by laser scanning confocal fluorescence microscopy; assay type: cell-based, mouse; conditions: DiI-HDL 1 μg/ml, 2-4 h at 37° C., LDL 40 μg/ml, RAP 1 μM
Experimental: Cells were plated into gelatin-coated wells of 8-well plastic chamber slides (Nalge Nunc, Naperville, Ill.) (4×10^4 cells/cm^2) and incubated at 37° C., 5% CO2 for 2 hours. The cells were washed with serum-free DMEM and incubated in serum-free DMEM containing ITS (insulin 5 μg/ml, transferrin 5 μg/ml, sodium selenite 5 ng/ml, Boehringer Mannheim, Germany), penicillin, and streptomycin for 18 hours at 37° C., 5% CO2. Prior to addition of DiI-HDL, the cells were incubated with serum-free DMEM containing unlabeled HDL3 (40 μg/ml) or RAP (1 μM) for 0.5 hour at 37° C., 5% CO2. DiI-HDL (1 μg/ml) in serum-free DMEM or in serum-free DMEM containing unlabeled HDL3 (40 μg/ml) or RAP (1 μM) was then incubated with the cells for 2-4 hours at 37° C., 5% CO2. The cells were washed three times with Dulbecco's phosphate buffered saline (dPBS), fixed in 3% formaldehyde in dPBS for 20 minutes at room temperature. […]
Cells were plated into gelatin-coated wells of plastic chamber slides (Nalge Nunc, Naperville, Ill.) (4×10^4 cells/cm^2) and incubated at 37° C., 5% CO2 for 2 h. […] The cells were washed with dPBS, fixed in 3% formaldehyde in dPBS for 20 min at 25° C. and analyzed using a BiORad MRC1024 laser scanning confocal microscope.

B1: RAP: 39 kDa chaperone protein that inhibits ligand binding to LDLR family members; recombinant human RAP (protein, UniProt P30533 35-357, looked up)
Alpha-2-macroglobulin …: YSREKNQPKPSPKRESGEEFRMEKLNQLWEKAQRLHLPPVRLAELHADLKIQERDELAWKKLKLDGLDEDGEKEARLIRNLNVILAKYGLDGKKDARQVTSNSLSGTQEDGLDDPRLEKLWHKAKTSGKFSGEELDKLWREFLHHKEKVHEYNVLLETLSRTEEIHENVISPSDLSDIKGSVLHSRHTELKEKLRSINQGLDRLRRVSHQGYSTEAEFEEPRVIDLWDLAQSANLTDKELEAFREELKHFEAKIEKHNHYQKQLEIAHEKLRHAESVGDGERVSRSREKHALLEGRTKELGYTVKKHLQDLSGRISRARHNEL
degradation of [125I]-HDL [1]: inhibited the endocytosis and degradation
internalization (endocytosis) of [125I]-HDL [1]: inhibited the endocytosis and degradation
uptake of DiI-HDL (cell staining) [2]: completely blocked
